Experimental findings from patent US20160115500A1 (University of California, published 2016) are described below.

In test [1] the target is T1, GAL4 activation domain fusion (ACT) to HAB1 (UniProt Q9CAJ0 23-511, limits assumed).
T1 construct: pACT-HAB1 fusion in yeast reporter strains; also called pACT-HAB1
T1 sequence (looked up): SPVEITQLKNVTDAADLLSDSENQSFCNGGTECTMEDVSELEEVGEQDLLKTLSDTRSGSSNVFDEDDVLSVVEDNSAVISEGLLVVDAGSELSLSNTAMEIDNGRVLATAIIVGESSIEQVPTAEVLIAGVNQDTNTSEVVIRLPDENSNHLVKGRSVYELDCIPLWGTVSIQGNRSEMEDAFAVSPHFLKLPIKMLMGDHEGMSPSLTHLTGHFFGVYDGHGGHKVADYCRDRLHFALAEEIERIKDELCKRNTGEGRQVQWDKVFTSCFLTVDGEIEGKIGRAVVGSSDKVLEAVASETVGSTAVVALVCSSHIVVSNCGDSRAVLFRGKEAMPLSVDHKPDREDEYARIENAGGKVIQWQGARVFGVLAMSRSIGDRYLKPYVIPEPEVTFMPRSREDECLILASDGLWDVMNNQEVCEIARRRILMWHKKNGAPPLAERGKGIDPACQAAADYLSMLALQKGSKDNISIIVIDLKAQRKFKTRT
Briefly: yeast two-hybrid, X-gal; lowest benzothiadiazole concentration giving signal.

In test [2] the target is T1, GAL4 activation domain fusion (ACT) to …. Briefly: yeast two-hybrid, X-gal; lowest fludioxonil concentration giving signal.
Test [3] has the same target. Nature of the test: yeast two-hybrid, X-gal; lowest mandipropamid concentration giving signal.
Test [4] shares this target. Nature of the test: yeast two-hybrid, X-gal; lowest dichlobenil concentration giving signal.

B1: PYR1^K59R,A89C (receptor, not shown: small tags and cut ends)
chain: MPSELTPEERSELKNSIAEFHTYQLDPGSCSSLHAQRIHAPPELVWSIVRRFDKPQTYRHFIKSCSVEQNFEMRVGCTRDVIVISGLPCNTSTERLDILDDERRVTGFSIIGGEHRLTNYKSVTTVHRFEKENRIWTVVLESYVVDMPEGNSEDDTRMFADTVVKLNLQKLATVAEAMARNSGDGSGSQVT
notes: pBD-PYR1 fusion in yeast
For the molecule B1, the Threshold in test [1] worked out at 100 µM.

B2: PYR1^K59R,Y120A,N167C (receptor, not shown: small tags and cut ends)
chain: MPSELTPEERSELKNSIAEFHTYQLDPGSCSSLHAQRIHAPPELVWSIVRRFDKPQTYRHFIKSCSVEQNFEMRVGCTRDVIVISGLPANTSTERLDILDDERRVTGFSIIGGEHRLTNAKSVTTVHRFEKENRIWTVVLESYVVDMPEGNSEDDTRMFADTVVKLCLQKLATVAEAMARNSGDGSGSQVT
notes: pBD-PYR1 fusion in yeast
B2 came in with a Threshold in test [2] of 10 µM.

B3: PYR1^K59R,A160G,V164K (receptor)
chain: MPSELTPEERSELKNSIAEFHTYQLDPGSCSSLHAQRIHAPPELVWSIVRRFDKPQTYRHFIKSCSVEQNFEMRVGCTRDVIVISGLPANTSTERLDILDDERRVTGFSIIGGEHRLTNYKSVTTVHRFEKENRIWTVVLESYVVDMPEGNSEDDTRMFGDTVKKLNLQKLATVAEAMARNSGDGSGSQVT
notes: pBD-PYR1 fusion in yeast
Molecule B3 returned a Threshold in test [1] of 5 µM.

B4: PYR1^K59R,Y120G (receptor, not shown: small tags and cut ends)
chain: MPSELTPEERSELKNSIAEFHTYQLDPGSCSSLHAQRIHAPPELVWSIVRRFDKPQTYRHFIKSCSVEQNFEMRVGCTRDVIVISGLPANTSTERLDILDDERRVTGFSIIGGEHRLTNGKSVTTVHRFEKENRIWTVVLESYVVDMPEGNSEDDTRMFADTVVKLNLQKLATVAEAMARNSGDGSGSQVT
notes: pBD-PYR1 fusion in yeast
B4 gave a Threshold in test [2] of 100 µM.

B5: PYR1^K59R,A160G,L117C (receptor)
chain: MPSELTPEERSELKNSIAEFHTYQLDPGSCSSLHAQRIHAPPELVWSIVRRFDKPQTYRHFIKSCSVEQNFEMRVGCTRDVIVISGLPANTSTERLDILDDERRVTGFSIIGGEHRCTNYKSVTTVHRFEKENRIWTVVLESYVVDMPEGNSEDDTRMFGDTVVKLNLQKLATVAEAMARNSGDGSGSQVT
notes: pBD-PYR1 fusion in yeast
Regarding B5, in test [1], the Threshold came to 25 µM.

B6: PYR1^K59R,F108L (receptor)
chain: MPSELTPEERSELKNSIAEFHTYQLDPGSCSSLHAQRIHAPPELVWSIVRRFDKPQTYRHFIKSCSVEQNFEMRVGCTRDVIVISGLPANTSTERLDILDDERRVTGLSIIGGEHRLTNYKSVTTVHRFEKENRIWTVVLESYVVDMPEGNSEDDTRMFADTVVKLNLQKLATVAEAMARNSGDGSGSQVT
notes: pBD-PYR1 fusion in yeast
As to B6, the Threshold in test [2] and in test [3] was 100 µM throughout.

B7: PYR1^K59R,A160G (receptor, not shown: small tags and cut ends)
chain: MPSELTPEERSELKNSIAEFHTYQLDPGSCSSLHAQRIHAPPELVWSIVRRFDKPQTYRHFIKSCSVEQNFEMRVGCTRDVIVISGLPANTSTERLDILDDERRVTGFSIIGGEHRLTNYKSVTTVHRFEKENRIWTVVLESYVVDMPEGNSEDDTRMFGDTVVKLNLQKLATVAEAMARNSGDGSGSQVT
notes: pBD-PYR1 fusion in yeast
B7 had a Threshold in test [1] of 100 µM.

B8: PYR1^K59R,Y120A (receptor, not shown: small tags and cut ends)
chain: MPSELTPEERSELKNSIAEFHTYQLDPGSCSSLHAQRIHAPPELVWSIVRRFDKPQTYRHFIKSCSVEQNFEMRVGCTRDVIVISGLPANTSTERLDILDDERRVTGFSIIGGEHRLTNAKSVTTVHRFEKENRIWTVVLESYVVDMPEGNSEDDTRMFADTVVKLNLQKLATVAEAMARNSGDGSGSQVT
notes: pBD-PYR1 fusion in yeast
As to B8, the Threshold in test [2] is 100 µM.

B9: PYR1^K59R,L87P (receptor, not shown: small tags and cut ends)
chain: MPSELTPEERSELKNSIAEFHTYQLDPGSCSSLHAQRIHAPPELVWSIVRRFDKPQTYRHFIKSCSVEQNFEMRVGCTRDVIVISGPPANTSTERLDILDDERRVTGFSIIGGEHRLTNYKSVTTVHRFEKENRIWTVVLESYVVDMPEGNSEDDTRMFADTVVKLNLQKLATVAEAMARNSGDGSGSQVT
notes: pBD-PYR1 fusion in yeast
As to B9, the Threshold in test [2] and in test [4] was 100 µM each time.

B10: PYR1^K59R,Y120F (receptor, not shown: small tags and cut ends)
chain: MPSELTPEERSELKNSIAEFHTYQLDPGSCSSLHAQRIHAPPELVWSIVRRFDKPQTYRHFIKSCSVEQNFEMRVGCTRDVIVISGLPANTSTERLDILDDERRVTGFSIIGGEHRLTNFKSVTTVHRFEKENRIWTVVLESYVVDMPEGNSEDDTRMFADTVVKLNLQKLATVAEAMARNSGDGSGSQVT
notes: pBD-PYR1 fusion in yeast
Turning to B10, the Threshold in test [2] was 100 µM.

B11: PYR1^K59R,N167C (receptor, not shown: small tags and cut ends)
chain: MPSELTPEERSELKNSIAEFHTYQLDPGSCSSLHAQRIHAPPELVWSIVRRFDKPQTYRHFIKSCSVEQNFEMRVGCTRDVIVISGLPANTSTERLDILDDERRVTGFSIIGGEHRLTNYKSVTTVHRFEKENRIWTVVLESYVVDMPEGNSEDDTRMFADTVVKLCLQKLATVAEAMARNSGDGSGSQVT
notes: pBD-PYR1 fusion in yeast
On to B11, for which the Threshold in test [2] and in test [4] was 100 µM in each case.

B12: PYR1^K59R,Y120M (receptor, not shown: small tags and cut ends)
chain: MPSELTPEERSELKNSIAEFHTYQLDPGSCSSLHAQRIHAPPELVWSIVRRFDKPQTYRHFIKSCSVEQNFEMRVGCTRDVIVISGLPANTSTERLDILDDERRVTGFSIIGGEHRLTNMKSVTTVHRFEKENRIWTVVLESYVVDMPEGNSEDDTRMFADTVVKLNLQKLATVAEAMARNSGDGSGSQVT
notes: pBD-PYR1 fusion in yeast
Turning to B12, the Threshold in test [2] was determined as 100 µM.

B13: PYR1^K59R,E94D (receptor, not shown: small tags and cut ends)
chain: MPSELTPEERSELKNSIAEFHTYQLDPGSCSSLHAQRIHAPPELVWSIVRRFDKPQTYRHFIKSCSVEQNFEMRVGCTRDVIVISGLPANTSTDRLDILDDERRVTGFSIIGGEHRLTNYKSVTTVHRFEKENRIWTVVLESYVVDMPEGNSEDDTRMFADTVVKLNLQKLATVAEAMARNSGDGSGSQVT
notes: pBD-PYR1 fusion in yeast
As to B13, the Threshold in test [2] and in test [4] was 100 µM throughout.

B14: PYR1^K59R,A89C,L117C (receptor)
chain: MPSELTPEERSELKNSIAEFHTYQLDPGSCSSLHAQRIHAPPELVWSIVRRFDKPQTYRHFIKSCSVEQNFEMRVGCTRDVIVISGLPCNTSTERLDILDDERRVTGFSIIGGEHRCTNYKSVTTVHRFEKENRIWTVVLESYVVDMPEGNSEDDTRMFADTVVKLNLQKLATVAEAMARNSGDGSGSQVT
notes: pBD-PYR1 fusion in yeast
In turn, B14 gave a Threshold in test [1] of 25 µM.

B15: PYR1^K59R,A89C,V164K (receptor, not shown: small tags and cut ends)
chain: MPSELTPEERSELKNSIAEFHTYQLDPGSCSSLHAQRIHAPPELVWSIVRRFDKPQTYRHFIKSCSVEQNFEMRVGCTRDVIVISGLPCNTSTERLDILDDERRVTGFSIIGGEHRLTNYKSVTTVHRFEKENRIWTVVLESYVVDMPEGNSEDDTRMFADTVKKLNLQKLATVAEAMARNSGDGSGSQVT
notes: pBD-PYR1 fusion in yeast
The molecule B15 displayed a Threshold in test [1] of 0.2 µM.

B16: PYR1^K59R,V81Y (receptor, not shown: small tags and cut ends)
chain: MPSELTPEERSELKNSIAEFHTYQLDPGSCSSLHAQRIHAPPELVWSIVRRFDKPQTYRHFIKSCSVEQNFEMRVGCTRDYIVISGLPANTSTERLDILDDERRVTGFSIIGGEHRLTNYKSVTTVHRFEKENRIWTVVLESYVVDMPEGNSEDDTRMFADTVVKLNLQKLATVAEAMARNSGDGSGSQVT
notes: pBD-PYR1 fusion in yeast
With B16, the Threshold in test [2] was determined as 100 µM.

B17: PYR1^K59R,S92F (receptor, not shown: small tags and cut ends)
chain: MPSELTPEERSELKNSIAEFHTYQLDPGSCSSLHAQRIHAPPELVWSIVRRFDKPQTYRHFIKSCSVEQNFEMRVGCTRDVIVISGLPANTFTERLDILDDERRVTGFSIIGGEHRLTNYKSVTTVHRFEKENRIWTVVLESYVVDMPEGNSEDDTRMFADTVVKLNLQKLATVAEAMARNSGDGSGSQVT
notes: pBD-PYR1 fusion in yeast
For the molecule B17, the Threshold in test [2] worked out at 100 µM.

B18: PYR1^K59R,Y120A,E141Y (receptor, not shown: small tags and cut ends)
chain: MPSELTPEERSELKNSIAEFHTYQLDPGSCSSLHAQRIHAPPELVWSIVRRFDKPQTYRHFIKSCSVEQNFEMRVGCTRDVIVISGLPANTSTERLDILDDERRVTGFSIIGGEHRLTNAKSVTTVHRFEKENRIWTVVLYSYVVDMPEGNSEDDTRMFADTVVKLNLQKLATVAEAMARNSGDGSGSQVT
notes: pBD-PYR1 fusion in yeast
B18 registered a Threshold in test [2] of 10 µM.

B19: PYR1^K59R,A89C,A160G (receptor, not shown: small tags and cut ends)
chain: MPSELTPEERSELKNSIAEFHTYQLDPGSCSSLHAQRIHAPPELVWSIVRRFDKPQTYRHFIKSCSVEQNFEMRVGCTRDVIVISGLPCNTSTERLDILDDERRVTGFSIIGGEHRLTNYKSVTTVHRFEKENRIWTVVLESYVVDMPEGNSEDDTRMFGDTVVKLNLQKLATVAEAMARNSGDGSGSQVT
notes: pBD-PYR1 fusion in yeast
In test [1], B19 yielded a Threshold of 5 µM.

B20: PYR1^K59R,A160C (receptor, not shown: small tags and cut ends)
chain: MPSELTPEERSELKNSIAEFHTYQLDPGSCSSLHAQRIHAPPELVWSIVRRFDKPQTYRHFIKSCSVEQNFEMRVGCTRDVIVISGLPANTSTERLDILDDERRVTGFSIIGGEHRLTNYKSVTTVHRFEKENRIWTVVLESYVVDMPEGNSEDDTRMFCDTVVKLNLQKLATVAEAMARNSGDGSGSQVT
notes: pBD-PYR1 fusion in yeast
On to B20, for which the Threshold in test [2] and in test [4] was 100 µM throughout.

B21: PYR1^K59R,A89C,E141Y (receptor, not shown: small tags and cut ends)
chain: MPSELTPEERSELKNSIAEFHTYQLDPGSCSSLHAQRIHAPPELVWSIVRRFDKPQTYRHFIKSCSVEQNFEMRVGCTRDVIVISGLPCNTSTERLDILDDERRVTGFSIIGGEHRLTNYKSVTTVHRFEKENRIWTVVLYSYVVDMPEGNSEDDTRMFADTVVKLNLQKLATVAEAMARNSGDGSGSQVT
notes: pBD-PYR1 fusion in yeast
Regarding B21, the Threshold in test [1] is 0.2 µM.
